{
  "source": "paper PMC6324732",
  "about": "(Cancer immunology research, 2018)",
  "data": [
    {"target": "HLA-A*02:01 heavy chain / β2-microglobulin (human)", "test": "differential scanning fluorimetry", "settings": "not given", "units": {"Tm of the peptide/HLA-A2 complex": "°C"}, "values": [
      {"molecule": "TAX peptide", "Tm of the peptide/HLA-A2 complex": 61.9}
    ]},
    {"test_system": "HLA-A2", "test": "not given", "settings": "each complex refolded with HLA-A2 individually, DSF; cited from earlier work", "units": {"Tm value determined by another lab": "°C"}, "values": [
      {"molecule": "YMDGTMSQV [Tyrosinase]", "Tm value determined by another lab": 67.3}
    ]},
    {"test_system": "HLA-A2", "test": "not given", "settings": "pep/HLA-A2 complexes; cited from earlier work", "units": {"half-life of the complex (reported)": "h"}, "values": [
      {"molecule": "FLTSVINRV", "half-life of the complex (reported)": 22.3}
    ]},
    {"test_system": "HLA-A2-restricted T-cell response", "test": "not given", "settings": "HLA-A2-restricted epitopes; cited from earlier work", "values": [
      {"molecule": "FLTSVINRV", "immunogenicity (reported)": "immunogenic"}
    ]},
    {"target": "HLA-A*02:01 heavy chain / β2-microglobulin (human)", "test": "differential scanning fluorimetry", "settings": "not given", "remark": "another data set of the same source", "units": {"Tm of the peptide/HLA-A2 complex": "°C"}, "values": [
      {"molecule": "VLLGVKLFGV", "note": "[COL18A1 neoantigen peptide …]", "Tm of the peptide/HLA-A2 complex": 60.9},
      {"molecule": "HIAKSLFEV", "note": "[FLNA neoantigen peptide …]", "Tm of the peptide/HLA-A2 complex": 56.4},
      {"molecule": "ILDKVLVHL", "note": "[CLPP neoantigen peptide …]", "Tm of the peptide/HLA-A2 complex": 57.1},
      {"molecule": "SLFEGIDIYT", "note": "[HSP70 neoantigen peptide …]", "Tm of the peptide/HLA-A2 complex": 59.8},
      {"molecule": "VVMSWAPPV", "note": "[FNDC3B neoantigen peptide …]", "Tm of the peptide/HLA-A2 complex": 61.6},
      {"molecule": "TLWCSPIKV", "note": "[SRPX neoantigen peptide …]", "Tm of the peptide/HLA-A2 complex": 63.7},
      {"molecule": "SVLENFTIFL", "Tm of the peptide/HLA-A2 complex": 55.8},
      {"molecule": "ALIHHNTYL", "note": "[ERBB2 neoantigen peptide …]", "Tm of the peptide/HLA-A2 complex": 59.4},
      {"molecule": "TLLSQVNKV", "note": "[CIT neoantigen peptide …]", "Tm of the peptide/HLA-A2 complex": 53.2},
      {"molecule": "ALYGFVPVL", "note": "[GANAB neoantigen peptide …]", "Tm of the peptide/HLA-A2 complex": 61.7},
      {"molecule": "FLDEFMEGV", "note": "[ME-1 neoantigen peptide …]", "Tm of the peptide/HLA-A2 complex": 63.2},
      {"molecule": "ILNAMIAKI", "note": "[HAUS3 neoantigen peptide …]", "Tm of the peptide/HLA-A2 complex": 56.9},
      {"molecule": "VLENFTIFLV", "Tm of the peptide/HLA-A2 complex": 48.2},
      {"molecule": "FIASNGVKLV", "note": "[ACTININ neoantigen peptide …]", "Tm of the peptide/HLA-A2 complex": 56.9},
      {"molecule": "GLFGDIYLAI", "note": "[CSNK1A1 neoantigen peptide …]", "Tm of the peptide/HLA-A2 complex": 52.6},
      {"molecule": "VLAKKLKFV", "note": "[ACPP neoantigen peptide …]", "Tm of the peptide/HLA-A2 complex": 56.8},
      {"molecule": "FLSDHLYLV", "note": "[CDC37L1 neoantigen peptide …]", "Tm of the peptide/HLA-A2 complex": 61.8},
      {"molecule": "SLADEAEVYL", "note": "[GAS7 neoantigen peptide …]", "Tm of the peptide/HLA-A2 complex": 59.2},
      {"molecule": "FLLDEAIGL", "note": "[SPOP neoantigen peptide …]", "Tm of the peptide/HLA-A2 complex": 60.7},
      {"molecule": "ACDPHSGHFV", "note": "[CDK4 neoantigen peptide …]", "Tm of the peptide/HLA-A2 complex": 59.9},
      {"molecule": "FMPDFDLHL", "note": "[AHNAK neoantigen peptide …]", "Tm of the peptide/HLA-A2 complex": 60.1},
      {"molecule": "LLHTELERFL", "note": "[DCAKD neoantigen peptide …]", "Tm of the peptide/HLA-A2 complex": 42.9},
      {"molecule": "LLLDDLLVSI", "note": "[PRDX5 neoantigen peptide …]", "Tm of the peptide/HLA-A2 complex": 55.3},
      {"molecule": "VLHDDLLEA", "note": "[KIAA0223 neoantigen peptide …]", "Tm of the peptide/HLA-A2 complex": 59.7},
      {"molecule": "ILTGLNYEV", "note": "[NSDHL neoantigen peptide …]", "Tm of the peptide/HLA-A2 complex": 61.4},
      {"molecule": "GIVEGLITTV", "note": "[GAPDH neoantigen peptide …]", "Tm of the peptide/HLA-A2 complex": 58.5}
    ]}
  ]
}
